# From patent US20030013169, “Transcription factor E2F DNA-binding domain inhibitor peptides and their use” (published 2003)
# B1: B-myb E2F probe (dsDNA)
# DNA 1: CGACGCGCTTGGCGGGAGATAGAAAAGTGC
# DNA 2: GCACTTTTCTATCTCCCGCCAAGCGCGTCG
# Molecular target: E2F1/DP1 heterodimer (Homo sapiens, UniProt Q01094;Q14186 Q01094:64-301,Q14186:85-249)
# Assay: EMSA; binding inhibited by peptides SEQ 2, 4, 5 with IC50 50-100 uM; about 100-fold lower for MAP-branched SEQ 2; room temperature
# Conditions: tags: His-E2F1 (pET28b); GST-DP1; label: 32P fill-in
# Procedure: Purified E2F1 N1-His (64-301) and DP1 N2-GST (84-249) were incubated at 10 μg/ml in a buffer containing 10 mM HEPES, […], 1 mM EDTA, […], 33 mg/ml BSA and 0.1 μg of sonicated salmon sperm for 10 minutes on ice. ³²P-labelled probe was added and the reaction mixture was incubated at room temperature for 20 minutes. Probes were labelled by filling-in 5′ overhanging ends of 4-7 bases. Samples were run on 4% non denaturing polyacrylamide gel in 0.5% TBE at 4° C. Gels were exposed to X-ray films. Nuclear extract (3 μg) was incubated in 17 μl buffer containing 0.3 M NaCl, 0.4 M Tris pH 7.9, 100 mM EDTA, 0.4 M DTT, 13% glycerol, 1 μg of sonicated salmon sperm on ice. The samples were then incubated for 10 minutes at 30° C. and cooled on ice. ³²P-labelled probe was added, the reaction mixtures were incubated for another 10 minutes at 30° C. and then cooled on ice.
# The inhibitory potential of the peptides on E2F function was analysed in band shift assays with recombinant E2F1 and DP1. […] The IC₅₀ concentrations for the 3 peptides were in the range of 50-100 μM. Inhibition to various extends was also observed using recombinant fragments of E2F2, E2F3, E2F4, E2F5, respectively. Approximately 100-fold lower IC50 values were found with a branched molecule consisting of 4 copies of SEQ ID NO:2 linked by MAP (multiple antigen peptide).
# Chain of E2F1/DP1 heterodimer (Q01094 64-301, chain 1 of 2): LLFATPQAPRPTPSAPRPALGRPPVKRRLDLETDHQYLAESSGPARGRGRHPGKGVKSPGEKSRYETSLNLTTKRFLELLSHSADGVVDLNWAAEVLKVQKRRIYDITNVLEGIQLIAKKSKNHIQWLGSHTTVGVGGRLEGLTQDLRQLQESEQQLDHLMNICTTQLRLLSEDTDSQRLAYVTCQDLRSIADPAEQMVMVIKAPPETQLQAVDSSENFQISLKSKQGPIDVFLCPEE
# Chain of E2F1/DP1 heterodimer (Q14186 85-249, chain 2 of 2): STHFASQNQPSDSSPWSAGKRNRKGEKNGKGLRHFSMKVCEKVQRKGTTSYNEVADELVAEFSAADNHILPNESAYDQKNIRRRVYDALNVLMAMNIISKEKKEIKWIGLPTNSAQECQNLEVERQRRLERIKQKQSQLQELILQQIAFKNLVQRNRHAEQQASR
binder,measurement,value
B1,binding result,binds
